What was measured:
HLA-A*32:01 = assay: IEDB peptide-MHC binding, purified MHC/competitive/radioactivity; filed as Kd, often an IC50 or EC50 that approximates it; ≥ and ≤ were set here for values at or beyond the usual limits of such assays
HLA-A*30:01 = assay: as above
HLA-A*02:01 [1] = assay: IEDB peptide-MHC binding, purified MHC/direct/fluorescence; filed as Kd, often an IC50 or EC50 that approximates it; ≥ and ≤ were set here for values at or beyond the usual limits of such assays
HLA-A*69:01 = assay: as above
HLA-A*11:01 = assay: as above
HLA-A*03:01 [2] = assay: as above
HLA-B*08:01 = assay: IEDB peptide-MHC binding, purified MHC/competitive/radioactivity; filed as Kd, often an IC50 or EC50 that approximates it; ≥ and ≤ were set here for values at or beyond the usual limits of such assays
HLA-A*02:01 [3] = assay: IEDB peptide-MHC binding, purified MHC/competitive/fluorescence; ≥ and ≤ were set here for values at or beyond the usual limits of such assays
HLA-B*40:01 [4] = assay: IEDB peptide-MHC binding, purified MHC/direct/fluorescence; filed as Kd, often an IC50 or EC50 that approximates it; ≥ and ≤ were set here for values at or beyond the usual limits of such assays
HLA-B*53:01 = assay: IEDB peptide-MHC binding, purified MHC/competitive/radioactivity; filed as Kd, often an IC50 or EC50 that approximates it; ≥ and ≤ were set here for values at or beyond the usual limits of such assays
HLA-A*26:01 = assay: IEDB peptide-MHC binding, purified MHC/direct/fluorescence; filed as Kd, often an IC50 or EC50 that approximates it; ≥ and ≤ were set here for values at or beyond the usual limits of such assays
HLA-A*33:01 = assay: IEDB peptide-MHC binding, purified MHC/competitive/radioactivity; filed as Kd, often an IC50 or EC50 that approximates it; ≥ and ≤ were set here for values at or beyond the usual limits of such assays; conditions: source organism: Dengue virus 1 Brazil/97-11/1997
HLA-B*40:01 [5] = assay: as above
HLA-A*01:01 = assay: IEDB peptide-MHC binding, purified MHC/direct/fluorescence; filed as Kd, often an IC50 or EC50 that approximates it; ≥ and ≤ were set here for values at or beyond the usual limits of such assays; conditions: source organism: Haemophilus influenzae
HLA-A*31:01 = assay: as above
HLA-B*15:01 = assay: as above
HLA-A*23:01 = assay: IEDB peptide-MHC binding, purified MHC/competitive/radioactivity; filed as Kd, often an IC50 or EC50 that approximates it; ≥ and ≤ were set here for values at or beyond the usual limits of such assays; conditions: source organism: Dengue virus 1 Brazil/97-11/1997
HLA-A*24:02 = assay: as above; conditions: source organism: Dengue virus 1 Brazil/97-11/1997
HLA-A*03:01 [6] = assay: as above; conditions: source organism: Dengue virus 2 Peru/IQT2913/1996
HLA-B*58:01 = assay: IEDB peptide-MHC binding, purified MHC/direct/fluorescence; filed as Kd, often an IC50 or EC50 that approximates it; ≥ and ≤ were set here for values at or beyond the usual limits of such assays
[7] = source organism: Dengue virus 2 Jamaica/1409/1983
[8] = source organism: Vaccinia virus WR
[9] = source organism: Bacillus cytotoxicus
[10] = source organism: Francisella tularensis subsp. holarctica LVS
[11] = source organism: Dengue virus 1 Brazil/97-11/1997
[12] = source organism: Dengue virus 4 Philippines/H241/1956
[13] = source organism: Dengue virus 3 Martinique/1243/1999
[14] = source organism: Bacillus anthracis
[15] = source organism: Dengue virus 2 Peru/IQT2913/1996
[16] = source organism: Sudan ebolavirus
[17] = source organism: Zaire ebolavirus
[18] = source organism: Haemophilus influenzae
[19] = source organism: Rickettsia prowazekii

AAIGKAWEEG gave a Kd (HLA-A*32:01; source organism: Dengue virus 1 Singapore/S275/1990) of at least 69900 nM.
AGILKRWGTI was tested, and the Kd (HLA-A*32:01; [7]) was 8820 nM.
In the case of AGRLVRPFL, the Kd (HLA-A*30:01; [8]) is reported as 252 nM.
With ALSGFYYVQ the Kd (HLA-A*02:01 [1]; [9]) was 1400 nM and the Kd (HLA-A*69:01; [9]) was 2360 nM.
Work on AVYSICKFY yielded a Kd (HLA-A*11:01; [10]) of 708 nM and a Kd (HLA-A*03:01 [2]; [10]) of 297 nM.
AYRIKQRGIL showed a Kd (HLA-B*08:01; [7]) of 659 nM.
DARTYSDPLA showed a Kd (HLA-A*30:01; [11]) of 924 nM.
Work on DEAHFTDPSS yielded a Kd (HLA-A*30:01; [12]) of 165 nM.
For DQLSKFRTL, the Kd (HLA-B*08:01; [8]) was 7.4 nM.
DSMFLMTAT gave an IC50 (HLA-A*02:01 [3]; source organism: Variola virus) of 4400 nM.
For DTQGSNWIQK, the Kd (HLA-A*32:01; [7]) was 267 nM.
For EDMLTVWNRV, the Kd (HLA-A*32:01; [13]) was 13600 nM.
EHAGVISVL gave a Kd (HLA-B*40:01 [4]; source organism: Homo sapiens) of 364 nM and a Kd (HLA-A*69:01; source organism: Homo sapiens) of 4640 nM.
Work on EKEENMVKSL yielded a Kd (HLA-B*08:01; [13]) of 10600 nM.
Work on EKWKRQLNSL yielded a Kd (HLA-B*08:01; [12]) of 251 nM.
Sequence EPPFGDSYII has a Kd (HLA-B*53:01; [7]) of 363 nM.
EQDGITYYL showed a Kd (HLA-A*02:01 [1]; [14]) of at least 20000 nM and a Kd (HLA-A*69:01; [14]) of 12.5 nM.
Work on ETFKVIGGW yielded a Kd (HLA-A*26:01; source organism: Influenza A virus (A/swine/Italy/1654-1/99(H1N2))) of 182 nM.
Work on EVAGAGSGF yielded a Kd (HLA-A*26:01; source organism: Mycobacterium tuberculosis variant bovis) of 1.4 nM.
EVKTCTWPKS was tested, and the Kd (HLA-A*32:01; [13]) was at least 48400 nM.
In the case of FFINFFNLL, the Kd (HLA-B*08:01; [8]) is reported as 149 nM.
FGIFTTNIW was tested, and the Kd (HLA-B*53:01; [11]) was 168 nM.
Work on FMNEDHWFSR yielded a Kd (HLA-A*32:01; [11]) of 7080 nM and a Kd (HLA-A*33:01) of 13.2 nM.
FVYHPDRLK showed a Kd (HLA-A*03:01 [2]; source organism: Escherichia coli O157:H7) of 46.7 nM.
GAKIGCINV was tested, and the Kd (HLA-A*30:01; [8]) was 9.11 nM.
With GEGVLSKADL the Kd (HLA-B*40:01 [5]; [13]) was 42.4 nM.
For GLFPVSIPIT, the Kd (HLA-A*30:01; [15]) was 15900 nM.
In the case of GLITSTVTG, the IC50 (HLA-A*02:01 [3]; [16]) is reported as 12400 nM.
In the case of GLRNSLLVA, the Kd (HLA-A*30:01; [8]) is reported as 93.5 nM.
Work on GRLITANPVV yielded a Kd (HLA-A*30:01; [13]) of 1430 nM.
GRTLRVLKMV showed a Kd (HLA-A*30:01; [11]) of 634 nM.
GSTLAGVNV was tested, and the IC50 (HLA-A*02:01 [3]; [17]) was at least 95000 nM.
GTEMFRHGY gave a Kd (HLA-A*11:01; [18]) of 166 nM, a Kd (HLA-A*01:01) of 241 nM and a Kd (HLA-A*03:01 [2]; [18]) of 2730 nM. It also gave a Kd (HLA-A*31:01; [18]) of 8180 nM, a Kd (HLA-B*15:01; [18]) of 1160 nM and a Kd (HLA-A*69:01; [18]) of 4450 nM.
For GTGNIGETL, the Kd (HLA-A*32:01; [7]) was 8120 nM.
Sequence GYFTQTAGPW has a Kd (HLA-A*23:01) of 1220 nM and a Kd (HLA-A*24:02) of at least 70300 nM.
For HGLFPQLSA, the IC50 (HLA-A*02:01 [3]; [17]) was 47900 nM.
HLIIQYPSV gave a Kd (HLA-A*30:01; [8]) of 164 nM.
HLSNYIVSI showed a Kd (HLA-A*32:01; [8]) of 0.986 nM.
In the case of HMILVVVTT, the Kd (HLA-A*32:01; [12]) is reported as at least 77800 nM.
HMIVSRQEK was tested, and the Kd (HLA-A*30:01; [15]) was 17.6 nM and the Kd (HLA-A*03:01 [6]) was 21.2 nM.
For HSRASPRIG, the Kd (HLA-A*30:01; [8]) was 0.931 nM.
Work on HTLESPVEF yielded a Kd (HLA-A*11:01; source organism: SARS-CoV1) of at least 53900 nM, a Kd (HLA-A*31:01; source organism: SARS-CoV1) of 1400 nM and a Kd (HLA-B*15:01; source organism: SARS-CoV1) of 1440 nM. The Kd (HLA-B*58:01; source organism: SARS-CoV1) was 98.1 nM.
Work on HTSARLHSL yielded a Kd (HLA-A*30:01; [8]) of 4.14 nM.
IAGVAGLIT was tested, and the IC50 (HLA-A*02:01 [3]; [17]) was at least 205000 nM.
IGESSSNPTI showed a Kd (HLA-A*30:01; [12]) of 7340 nM.
IHDFIDNPL showed an IC50 (HLA-A*02:01 [3]; [16]) of at least 103000 nM.
For IILWFFNAM, the Kd (HLA-B*08:01; [8]) was 5230 nM.
In the case of IKHVGLITC, the IC50 (HLA-A*02:01 [3]; [8]) is reported as at least 622000 nM.
With ILGLPTQTV the Kd (HLA-A*02:01 [1]; source organism: SARS-CoV1) was 402 nM and the Kd (HLA-B*15:01; source organism: SARS-CoV1) was 1600 nM.
ILIDTSAWV showed a Kd (HLA-A*69:01; source organism: Mycobacterium tuberculosis) of 429 nM.
IMAVLFVVTL was tested, and the Kd (HLA-B*08:01; [12]) was 5420 nM.
In the case of IMRMRFKKG, the Kd (HLA-B*08:01; [8]) is reported as 62.4 nM.
ISGVFPVSI was tested, and the Kd (HLA-A*32:01; [7]) was 1120 nM.
For ISYGGGWRFQ, the Kd (HLA-A*32:01; [11]) was at least 56400 nM.
With ITYWSRFTI the Kd (HLA-A*32:01; [8]) was 2.48 nM.
With KALKINWYKK the Kd (HLA-A*32:01; source organism: Dengue virus 3 Singapore/8120/1995) was 8040 nM.
KEENLVRSM gave a Kd (HLA-B*40:01 [5]; [11]) of 1130 nM.
With KGGTGGWLW the Kd (HLA-B*58:01; source organism: Mycobacterium tuberculosis str. Haarlem) was 43.3 nM.
KGRISYYEM showed a Kd (HLA-A*30:01; [8]) of 14.4 nM.
KIFEYGFTF showed a Kd (HLA-A*11:01; [19]) of 377 nM, a Kd (HLA-A*02:01 [1]; [19]) of 106 nM and a Kd (HLA-A*03:01 [2]; [19]) of 6020 nM. The Kd (HLA-A*31:01; [19]) was 196 nM, the Kd (HLA-B*40:01 [4]; [19]) was 4350 nM and the Kd (HLA-B*15:01; [19]) was 229 nM. It also gave a Kd (HLA-A*69:01; [19]) of 4280 nM and a Kd (HLA-B*58:01; [19]) of 255 nM.
